Positions count from the first letter of the chain named. Names and notes keep the numbering of the source.
B1: wild-type XPC-GFP fusion, Q01831 W690S (protein)
chain: MARKRAAGGEPRGRELRSQKSKAKSKARREEEEEDAFEDEKPPKKSLLSKVSQGKRKRGCSHPGGSADGPAKKKVAKVTVKSENLKVIKDEALSDGDDLRDFPSDLKKAHHLKRGATMNEDSNEEEEESENDWEEVEELSEPVLGDVRESTAFSRSLLPVKPVEIEIETPEQAKTRERSEKIKLEFETYLRRAMKRFNKGVHEDTHKVHLLCLLANGFYRNNICSQPDLHAIGLSIIPARFTRVLPRDVDTYYLSNLVKWFIGTFTVNAELSASEQDNLQTTLERRFAIYSARDDEELVHIFLLILRALQLLTRLVLSLQPIPLKSATAKGKKPSKERLTADPGGSSETSSQVLENHTKPKTSKGTKQEETFAKGTCRPSAKGKRNKGGRKKRSKPSSSEEDEGPGDKQEKATQRRPHGRERRVASRVSYKEESGSDEAGSGSDFELSSGEASDPSDEDSEPGPPKQRKAPAPQRTKAGSKSASRTHRGSHRKDPSLPAASSSSSSSKRGKKMCSDGEKAEKRSIAGIDQWLEVFCEQEEKWVCVDCVHGVVGQPLTCYKYATKPMTYVVGIDSDGWVRDVTQRYDPVWMTVTRKCRVDAEWWAETLRPYQSPFMDREKKEDLEFQAKHMDQPLPTAIGLYKNHPLYALKRHLLKYEAIYPETAAILGYCRGEAVYSRDCVHTLHSRDTSLKKARVVRLGEVPYKMVKGFSNRARKARLAEPQLREENDLGLFGYWQTEEYQPPVAVDGKVPRNEFGNVYLFLPSMMPIGCVQLNLPNLHRVARKLDIDCVQAITGFDFHGGYSHPVTDGYIVCEEFKDVLLTAWENEQAVIERKEKEKKEKRALGNWKLLAKGLLIRERLKRRYGPKSEAAAPHTDAGGGLSSDEEEGTSSQAEAARILAASWPQNREDEEKQKLKGGPKKTKREKKAAASHLFPFEQL
B2: wild-type XPC-GFP fusion, Q01831 D748K; E755K (protein)
chain: B1 chain with S690W, D748K, E755K
B3: wild-type XPC-GFP fusion, Q01831 E755K (protein)
chain: B1 chain with S690W, E755K
B4: wild-type XPC-GFP fusion, Q01831 D748K (protein)
chain: B1 chain with S690W, D748K

Molecular target: recombinant histone H3K4me3, P68431
Experiment: co-immunoprecipitation with anti-H3K4me3 antibodies, quantified anti-GFP immunoblot
Settings: chain shown with the change, 0.3-M NaCl extracts of XP-C fibroblasts, recombinant H3K4me3 2 µg, n = 3, read off a plot

Binder | percent of parent [% WT] | further results
B1 | 72 | 
B2 |  | percent of parent (P = 0.0147 vs WT): 46 % WT
B3 | 85 | 
B4 |  | percent of parent (P = 0.0087 vs WT): 55 % WT
